Reference: article PMC11082093, “A 3′‐pre‐tRNA‐derived small RNA tRF‐1‐Ser regulated by 25(OH)D promotes proliferation and stemness by inhibiting the function of MBNL1 in breast cancer”

How the values were obtained:
MBNL1 recombinant [1] = biological target: T1, MBNL1 recombinant (UniProt Q9NR56 1-388); experiment: competition; excess unlabelled vs biotin-labelled tRF-1-Ser; EMSA; EMSA: REMSA Binding Buffer (Beyotime), 4 °C, 10 min; 6% TBE PAGE in ice box; salt and pH not given; conditions: protein: commercial
T1 sequence: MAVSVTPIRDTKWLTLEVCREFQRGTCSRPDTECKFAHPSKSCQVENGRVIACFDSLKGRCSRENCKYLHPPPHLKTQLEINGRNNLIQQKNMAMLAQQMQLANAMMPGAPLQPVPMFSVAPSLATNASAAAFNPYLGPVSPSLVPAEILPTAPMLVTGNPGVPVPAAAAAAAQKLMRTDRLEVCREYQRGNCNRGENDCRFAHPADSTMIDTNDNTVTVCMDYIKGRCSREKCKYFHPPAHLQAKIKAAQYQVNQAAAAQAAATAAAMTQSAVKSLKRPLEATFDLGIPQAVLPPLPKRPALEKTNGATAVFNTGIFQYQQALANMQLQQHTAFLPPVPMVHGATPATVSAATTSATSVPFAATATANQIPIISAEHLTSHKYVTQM

MBNL1 recombinant [2] = biological target: T1, MBNL1 recombinant; experiment: EMSA; EMSA: REMSA Binding Buffer (Beyotime), 4 °C, 10 min; 6% TBE PAGE in ice box; salt and pH not given; conditions: protein: commercial; label: biotin

B1: tRF-1-Ser unlabelled (mimic) (ssRNA)
RNA: GAAGCGGGUGCUCUUAUUUU
Question: Does B1 bind (MBNL1 recombinant [1])?
Answer: binds

B2: tRF-1-Ser (ssRNA)
RNA: GAAGCGGGUGCUCUUAUUUU
Question: Does B2 bind (MBNL1 recombinant [2])?
Answer: binds

B3: tRF-1-Ser-UGCU-mut (ssRNA)
RNA: GAAGCGGGCAACCUUAUUUU
Question: Does B3 bind (MBNL1 recombinant [2])?
Answer: no binding
